The record followed here is patent US6512161.

The target of assay [1] is either human or rabbit apoB. As to the kind of experiment: densitometry of non-reducing anti-apo(a) immunoblots, apoB/apo(a) transgenic rabbit plasma (n=3).
Assay [2] deals with rabbit apolipoprotein B-100 (rabbit) (UniProt P17165). Description: densitometry of non-reducing anti-apo(a) immunoblots, apo(a) transgenic rabbit plasma (n=3). On the technique in general: In western blotting, separated proteins are transferred to a membrane and probed.
Chain of UniProt P17165 (P17165 whole entry): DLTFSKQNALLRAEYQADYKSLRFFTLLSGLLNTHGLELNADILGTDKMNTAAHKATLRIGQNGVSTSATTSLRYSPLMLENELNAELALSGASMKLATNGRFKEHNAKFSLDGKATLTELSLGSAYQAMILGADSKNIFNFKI

For “human apolipoprotein(a) (from UniProt P08519 20-2040)”, in assay [1], the percent of apo(a) covalently bound amounted to 80% and the percent of apo(a) migrating as free apo(a) came out at 20%.

For the substance human apolipoprotein(a), P08519 20-2040, in assay [2], the percent of apo(a) bound was 20% and the percent of apo(a) free came out at 80%.
